The text below walks through data of US20200277374A1 (Alector, published 2020).

The target in assay [1] is T1, human Siglec-7 expressed on human cells (primary monocytes, dendritic cells, macrophages, NK cells, … (human, UniProt Q9Y286 19-467)).
T1 construct: Endogenous receptor on cells; also called Siglec-7 receptor
Nature of the assay: FACS, human primary monocytes, 10 ug/ml mAb. Background: A flow cytometer gives signals particle by particle.

Assay [2] addresses T1, human Siglec-7 expressed on human cells …. The assay can be described thus: FACS, human primary dendritic cells, 10 ug/ml mAb.
Assay [3] shares this target. The assay can be described thus: FACS, human primary macrophages, 10 ug/ml mAb.
Assay [4] concerns the target T2, Siglec-7-Fc (plate immobilized) (human, UniProt Q9Y286 19-357, limits assumed).
T2 construct: also called Siglec-7-Fc protein; immobilized Siglec-7; not shown: Fc part
Nature of the assay: RBC solid adhesion assay, plate-coated Siglec-7-Fc, antibody 0.5 or 1.0 ug/ml; % of RBC binding without antibody. The essentials: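 Plates coated overnight at RT with 5 μg/ml Siglec-7-Fc and blocked in PBS with BSA and 1 mM CaCl₂. Antibody (0.5 or 1.0 μg/ml) bound 1 h at RT, then RBCs (3.0×10⁶ cells/ml) added for 1 h at RT. Bound RBCs lysed and detected by peroxidase at 450 nm, expressed as % of binding without antibody.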

Assay [5] concerns the target T3, K104A (human, UniProt Q9Y286).
T3 construct: clone of the siglec-7 mutation library; also called Siglec-7 K104A
The assay can be described thus: flow cytometry on HEK-293T cells expressing the mutant; mean % of wild-type signal (range of duplicates).

Assay [6] deals with T4, F48A (human, UniProt Q9Y286).
T4 construct: clone of the siglec-7 mutation library; also called Siglec-7 F48A
The description is as above.

Assay [7] deals with T5, I72A (human, UniProt Q9Y286).
T5 construct: clone of the siglec-7 mutation library; also called Siglec-7 I72A
Described as above.

Assay [8] has as its target T6, S47A (human, UniProt Q9Y286).
T6 construct: clone of the siglec-7 mutation library; also called Siglec-7 S47A
The assay is described as above.

For assay [9], the target named is T7, Y50A (human, UniProt Q9Y286).
T7 construct: clone of the siglec-7 mutation library; also called Siglec-7 Y50A
The description is as above.

The target of assay [10] is T8, R45A (human, UniProt Q9Y286).
T8 construct: clone of the siglec-7 mutation library; also called Siglec-7 R45A
The description is as above.

Assay [11] deals with T9, V44A (human, UniProt Q9Y286).
T9 construct: clone of the siglec-7 mutation library; also called Siglec-7 V44A
The description is as above.

T1 sequence (Q9Y286 19-467): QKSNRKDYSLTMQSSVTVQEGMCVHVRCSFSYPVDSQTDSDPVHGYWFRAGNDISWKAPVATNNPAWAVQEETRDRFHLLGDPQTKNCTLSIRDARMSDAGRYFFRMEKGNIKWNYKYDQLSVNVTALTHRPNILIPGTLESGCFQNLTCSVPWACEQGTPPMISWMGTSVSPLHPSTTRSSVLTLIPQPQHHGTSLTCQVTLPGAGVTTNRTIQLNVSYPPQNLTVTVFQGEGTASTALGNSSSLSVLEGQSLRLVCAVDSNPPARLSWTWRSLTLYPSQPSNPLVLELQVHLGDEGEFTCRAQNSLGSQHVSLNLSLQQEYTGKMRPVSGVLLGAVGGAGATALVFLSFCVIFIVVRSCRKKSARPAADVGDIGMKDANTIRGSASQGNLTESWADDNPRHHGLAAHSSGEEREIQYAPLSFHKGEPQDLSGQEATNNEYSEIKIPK
T8 sequence (Q9Y286 19-467 R45A limits assumed): as the sequence (Q9Y286 19-467) above, with R27A counted along it
T5 sequence (Q9Y286 19-467 I72A limits assumed): as the sequence (Q9Y286 19-467) above, with I54A counted along it
T7 sequence (Q9Y286 19-467 Y50A limits assumed): as the sequence (Q9Y286 19-467) above, with Y32A counted along it
T4 sequence (Q9Y286 19-467 F48A limits assumed): as the sequence (Q9Y286 19-467) above, with F30A counted along it
T6 sequence (Q9Y286 19-467 S47A limits assumed): as the sequence (Q9Y286 19-467) above, with S29A counted along it
T3 sequence (Q9Y286 19-467 K104A limits assumed): as the sequence (Q9Y286 19-467) above, with K86A counted along it
T9 sequence (Q9Y286 19-467 V44A limits assumed): as the sequence (Q9Y286 19-467) above, with V26A counted along it
T2 sequence (Q9Y286 19-357 limits assumed): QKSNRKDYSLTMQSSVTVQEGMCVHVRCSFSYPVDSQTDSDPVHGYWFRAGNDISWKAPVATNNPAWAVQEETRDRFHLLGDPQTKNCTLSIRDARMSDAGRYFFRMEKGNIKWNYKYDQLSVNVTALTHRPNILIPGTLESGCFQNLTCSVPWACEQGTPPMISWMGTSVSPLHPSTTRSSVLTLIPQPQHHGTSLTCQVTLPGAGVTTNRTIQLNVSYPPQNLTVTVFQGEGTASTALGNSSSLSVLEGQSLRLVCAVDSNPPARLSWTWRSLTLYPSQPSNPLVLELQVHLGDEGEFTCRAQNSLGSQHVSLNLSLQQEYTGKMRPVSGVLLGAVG

B1: anti-Siglec-7 antibody 10B5 (antibody, V domains shown)
VH: QVHLQQSGPELVKPGASVKISCKASGYAFTNCWMNWVRQRPGKGLDWIGRIFPGNGHTNYSGKFKDKATLTEDKSSSTAYMQLSSLTSEDSAVYFCARDYSDYYFDYWGQGTTLTVSS
VL: DVQMTQTTSSLSASLGDRVTISCRASQDINTYLNWYQQKPDGTVKLLIYYTSRLHSGVPSRFSGSGSGTDYSLTISNLEQEDIATYFCQQGNTLPWTFGGGTKLEIK
notes: that light chain holds several Z and differs in its CDRs from S7-10B5.1 / 10B5L1; also called S7-10B5; mAb S7-10B5
As to B1, the “% Positive” value was found to be 99.2% in assay [1], 99.6% in [2] and 99.7% in assay [3]. The MFI in assay [1] is 417; in [2] it was 3230; in assay [3], 6030. The “Percent RBC Binding to Siglec-7” value in assay [4] amounted to 88.4%. Further, the “Binding Reactivity (% WT)” value was found to be 13.6 % WT in assay [5]; 159 % WT in assay [6]; 130 % WT in [7]; 81.7 % WT in assay [8]; 108 % WT in assay [9]; 37.3 % WT in assay [10]. Besides, the “Binding Reactivity (% WT)” value in [11] worked out at 93.9 % WT.
